For two molecules, Kd results are on record in article PMC10611751 (2023).

The assay concerns the target T1, Ankyrin-G 24 ANK repeats (residues 38-855) (UniProt O70511 38-855).
T1 chain: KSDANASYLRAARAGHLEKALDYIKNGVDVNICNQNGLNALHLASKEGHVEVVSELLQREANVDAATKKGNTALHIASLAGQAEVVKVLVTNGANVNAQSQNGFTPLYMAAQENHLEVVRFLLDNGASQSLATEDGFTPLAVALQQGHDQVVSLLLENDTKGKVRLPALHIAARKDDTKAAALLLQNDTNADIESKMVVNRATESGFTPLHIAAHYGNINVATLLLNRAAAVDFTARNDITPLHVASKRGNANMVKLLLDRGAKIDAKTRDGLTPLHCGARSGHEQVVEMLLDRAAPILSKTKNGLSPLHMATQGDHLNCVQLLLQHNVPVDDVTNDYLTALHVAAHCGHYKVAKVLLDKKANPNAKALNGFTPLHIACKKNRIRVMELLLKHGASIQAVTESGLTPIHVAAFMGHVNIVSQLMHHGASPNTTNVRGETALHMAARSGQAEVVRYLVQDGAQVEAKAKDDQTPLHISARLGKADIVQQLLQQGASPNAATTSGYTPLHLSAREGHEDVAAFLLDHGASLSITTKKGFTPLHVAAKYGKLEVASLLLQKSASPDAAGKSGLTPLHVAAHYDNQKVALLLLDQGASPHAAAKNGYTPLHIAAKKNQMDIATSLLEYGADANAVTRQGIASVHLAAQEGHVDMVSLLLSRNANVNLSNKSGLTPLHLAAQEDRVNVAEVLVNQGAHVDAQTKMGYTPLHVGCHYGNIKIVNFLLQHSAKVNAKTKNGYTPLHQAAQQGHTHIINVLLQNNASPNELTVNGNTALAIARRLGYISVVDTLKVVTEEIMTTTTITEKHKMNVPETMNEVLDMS
The assay can be described thus: ITC.

B1: E-cadherin CTD–β-catenin complex (complex)
chain 1: not shown
chain 2: MATQADLMELDMAMEPDRKAAVSHWQQQSYLDSGIHSGATTTAPSLSGKGNPEEEDVDTSQVLYEWEQGFSQSFTQEQVADIDGQYAMTRAQRVRAAMFPETLDEGMQIPSTQFDAAHPTNVQRLAEPSQMLKHAVVNLINYQDDAELATRAIPELTKLLNDEDQVVVNKAAVMVHQLSKKEASRHAIMRSPQMVSAIVRTMQNTNDVETARCTAGTLHNLSHHREGLLAIFKSGGIPALVKMLGSPVDSVLFYAITTLHNLLLHQEGAKMAVRLAGGLQKMVALLNKTNVKFLAITTDCLQILAYGNQESKLIILASGGPQALVNIMRTYTYEKLLWTTSRVLKVLSVCSSNKPAIVEAGGMQALGLHLTDPSQRLVQNCLWTLRNLSDAATKQEGMEGLLGTLVQLLGSDDINVVTCAAGILSNLTCNNYKNKMMVCQVGGIEALVRTVLRAGDREDITEPAICALRHLTSRHQEAEMAQNAVRLHYGLPVVVKLLHPPSHWPLIKATVGLIRNLALCPANHAPLREQGAIPRLVQLLVRAHQDTQRRTSMGGTQQQFVEGVRMEEIVEGCTGALHILARDVHNRIVIRGLNTIPLFVQLLYSPIENIQRVAAGVLCELAQDKEAAEAIEAEGATAPLTELLHSRNEGVATYAAAVLFRMSEDKPQDYKKRLSVELTSSLFRTEPMAWNETADLGLDIGAQGEALGYRQDDPSYRSFHSGGYGQDALGMDPMMEHEMGGHHPGADYPVDGLPDLGHAQDLMDGLPPGDSNQLAWFDTDL
On to B1, for which the Kd is 600 nM.

B2: E-cadherin 776-884–β-catenin complex (protein)
chain 1: not shown
chain 2: MATQADLMELDMAMEPDRKAAVSHWQQQSYLDSGIHSGATTTAPSLSGKGNPEEEDVDTSQVLYEWEQGFSQSFTQEQVADIDGQYAMTRAQRVRAAMFPETLDEGMQIPSTQFDAAHPTNVQRLAEPSQMLKHAVVNLINYQDDAELATRAIPELTKLLNDEDQVVVNKAAVMVHQLSKKEASRHAIMRSPQMVSAIVRTMQNTNDVETARCTAGTLHNLSHHREGLLAIFKSGGIPALVKMLGSPVDSVLFYAITTLHNLLLHQEGAKMAVRLAGGLQKMVALLNKTNVKFLAITTDCLQILAYGNQESKLIILASGGPQALVNIMRTYTYEKLLWTTSRVLKVLSVCSSNKPAIVEAGGMQALGLHLTDPSQRLVQNCLWTLRNLSDAATKQEGMEGLLGTLVQLLGSDDINVVTCAAGILSNLTCNNYKNKMMVCQVGGIEALVRTVLRAGDREDITEPAICALRHLTSRHQEAEMAQNAVRLHYGLPVVVKLLHPPSHWPLIKATVGLIRNLALCPANHAPLREQGAIPRLVQLLVRAHQDTQRRTSMGGTQQQFVEGVRMEEIVEGCTGALHILARDVHNRIVIRGLNTIPLFVQLLYSPIENIQRVAAGVLCELAQDKEAAEAIEAEGATAPLTELLHSRNEGVATYAAAVLFRMSEDKPQDYKKRLSVELTSSLFRTEPMAWNETADLGLDIGAQGEALGYRQDDPSYRSFHSGGYGQDALGMDPMMEHEMGGHHPGADYPVDGLPDLGHAQDLMDGLPPGDSNQLAWFDTDL
In the case of B2, the Kd stood at 1200 nM.
